Sequences and labels used below:
B1: Debocylase-1: E. coli CobB mutant I131V V148L (protein)
chain: KPRVLVLTGAGISAESGIRTFRAADGLWEEHRVEDVATPEGFDRDPELVQAFYNARRRQLQQPEIQPNAAHLALAKLQDALGDRFLLVTQNVDNLHERAGNTNVIHMHGELLKVRCSQSGQVLDWTGDVTPEDKCHCCQFPAPLRPHLVWFGEMPLGMDEIYMALSMADIFIAIGTSGHVYPAAGFVHEAKLHGAHTVELNLEPSQVGNEFAEKYYGPASQVVPEFVEKLLKGLKAGSIA
modifications: Debocylase-1
notes: E. coli CobB mutant I131V V148L
B2: Dealocase-1: E. coli CobB mutant A37S Y53W R56W I92V (protein)
chain: B1 chain with A37S, Y53W, R56W, L148V
modifications: Dealocase-1
notes: E. coli CobB mutant A37S Y53W R56W I92V
B3: Dealocase-3: E. coli CobB mutant I131S V148L (protein)
chain: B1 chain with V92S
modifications: Dealocase-3
notes: E. coli CobB mutant I131S V148L
B4: Decrotonylase-1: E. coli CobB mutant A37R Y53G R56T I92R V148L (protein)
chain: B1 chain with A37R, Y53G, R56T, V92R
modifications: Decrotonylase-1
notes: E. coli CobB mutant A37R Y53G R56T I92R V148L
B5: Dealocase-2: E. coli CobB mutant A37G R56G I92V (protein)
chain: B1 chain with A37G, R56G, L148V
modifications: Dealocase-2
notes: E. coli CobB mutant A37G R56G I92V

Residue numbers refer to the chain shown, from its start. Numbers in names are those of the source.

For one test, the system named is Firefly luciferase modified at K529. The test is described as follows: Dual luciferase reporter (DLR) assay in E. coli whole cell lysates. The class given is cell-based. Conditions: AcK at K529; normalized to Renilla luciferase, relative to wild-type CobB. The protocol: FIG. 3: Evolved CobB variants can activate Firefly luciferase modified at K529. Dual luciferase reporter (DLR) assays were performed with E. coli producing DLR with the indicated modification of K529 in the Firefly enzyme. Activities were normalized to genetically fused Renilla luciferase and plotted relative to the activity observed for wild-type CobB on the same substrate. A) CobB mutant able to discriminate crotonyl-over acetyl-lysine. B) CobB mutants active against protected forms of lysine.
The mutants isolated in the selections were tested using Firefly dual luciferase assays. E. coli DH10B ΔpyrF ΔcobB were transformed with plasmids expressing Firefly luciferase with the relevant modification on lysine-529 and the cobB mutants. Luciferase activity was tested directly in whole cell lysates and compared to the activity of wild-type cobB towards the modifications. The activities observed for the evolved KDAC variants correlated well with the activities observed in the uracil selections (FIG. 3).
For orientation: In a reporter assay the amount or activity of a reporter protein is the signal.
As to B1, the “DLR activity [rel. to wild-type], AcK” value was 1.25 rel. to wild-type.

Regarding B2, the “DLR activity [rel. to wild-type], AcK” value is on record as 0.49 rel. to wild-type.

On to B3, for which the “DLR activity [rel. to wild-type], AcK” value is 0.35 rel. to wild-type.

As to B4, the “DLR activity [rel. to wild-type], AcK” value is reported as 0.00 rel. to wild-type.

With B5, the “DLR activity [rel. to wild-type], AcK” value is given as 1.19 rel. to wild-type.

Still in this test, the particulars now being: AlocK at K529; normalized to Renilla luciferase, relative to wild-type CobB.
As to B1, the “DLR activity [rel. to wild-type], AlocK” value is given as 8.35 rel. to wild-type.

Take B2: the “DLR activity [rel. to wild-type], AlocK” value is recorded as 10.83 rel. to wild-type.

Turning to B3, the “DLR activity [rel. to wild-type], AlocK” value was 6.00 rel. to wild-type.

On to B4, for which the “DLR activity [rel. to wild-type], AlocK” value is given as 0.02 rel. to wild-type.

B5: the “DLR activity [rel. to wild-type], AlocK” value is 10.23 rel. to wild-type.

Staying with this test, now noted: BocK at K529; normalized to Renilla luciferase, relative to wild-type CobB.
Regarding B1, the “DLR activity [rel. to wild-type], BocK” value is 8.65 rel. to wild-type.

On to B2, for which the “DLR activity [rel. to wild-type], BocK” value is 2.88 rel. to wild-type.

As to B3, the “DLR activity [rel. to wild-type], BocK” value is reported as 0.65 rel. to wild-type.

With B4, the “DLR activity [rel. to wild-type], BocK” value is 0.04 rel. to wild-type.

For B5, the “DLR activity [rel. to wild-type], BocK” value was 0.77 rel. to wild-type.

The test is the same for the next values; noted with them: CrK at K529; normalized to Renilla luciferase, relative to wild-type CobB.
For the molecule B1, the “DLR activity [rel. to wild-type], CrK” value is 2.90 rel. to wild-type.

Regarding B2, the “DLR activity [rel. to wild-type], CrK” value is listed as 5.73 rel. to wild-type.

As for B3, the “DLR activity [rel. to wild-type], CrK” value is reported as 1.00 rel. to wild-type.

For B4, the “DLR activity [rel. to wild-type], CrK” value is on record as 0.10 rel. to wild-type.

Turning to B5, the “DLR activity [rel. to wild-type], CrK” value was 2.11 rel. to wild-type.

The values above are taken from patent publication US20200240995A1, “KDAC VARIANTS AND USES THEREOF” (Max-Planck-Gesellschaft Zur Forderung Der Wissenschaften …, priority 2017, published 2020).
